B1: human transcobalamin (holo-TC, cyanocobalamin-bound) (natural protein, UniProt P20062 19-427, looked up)
chain: EMCEIPEMDSHLVEKLGQHLLPWMDRLSLEHLNPSIYVGLRLSSLQAGTKEDLYLHSLKLGYQQCLLGSAFSEDDGDCQGKPSMGQLALYLLALRANCEFVRGHKGDRLVSQLKWFLEDEKRAIGHDHKGHPHTSYYQYGLGILALCLHQKRVHDSVVDKLLYAVEPFHQGHHSVDTAAMAGLAFTCLKRSNFNPGRRQRITMAIRTVQEEILKAQTPEGHFGNVYSTPLALQFLMTSPMRGAELGTACLKARVALLASLQDGAFQNALMISQLLPVLNHKTYIDLIFPDCLAPRVMLEPAAETIPQTQEIISVTLQVLSLLPPYRQSISVLAGSTVEDVLKKAHELGGFTYETQASLSGPYLTSVMGKAAGEREFWQLLRDPNTPLLQGIADYRPKDGETIELRLVSW
notes: transcobalamin (TC), human, residues 1-409, cDNA GenBank BC001176.1 harbouring R209Q; native secretion signal replaced with a Melittin secretion signal; Purified in the presence of excess cyanocobalamin (Cbl-CN), so the Cbl site is occupied; R209Q came with the bought cDNA clone (ImaGenes); also called tag-less TC; full-length TC; source: Sf21 insect cells (Multibac baculovirus), secreted, …

Test [1] concerns the target T1, CD320 extracellular domain, residues 53-199 (crystallization construct) (human, UniProt Q9NPF0 53-199).
T1 construct: CD320 (transcobalamin receptor), human, residues 53-199 of the extracellular domain; native secretion signal replaced with a Melittin secretion signal; Density seen for LDLR-A1 residues 53-89 and LDLR-A2 residues 129-171; none for the EGF-like domain (90-128); also called N-terminal 22 amino acid deletion of the receptor; not shown: His9, N-terminal, cleaved; MBP, N-terminal, cleaved
T1 sequence (looked up): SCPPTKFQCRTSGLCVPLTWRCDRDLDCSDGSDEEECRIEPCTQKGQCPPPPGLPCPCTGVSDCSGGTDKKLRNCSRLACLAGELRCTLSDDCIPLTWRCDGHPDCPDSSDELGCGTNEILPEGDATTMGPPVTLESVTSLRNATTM
Kind of test: crystal structure; co-crystals of the purified complex, sitting drop, 20 °C. Particulars: both partners purified.

Test [2] has as its target B1. In words: ELISA; solid-phase binding assay: biotinylated MBP-tagged receptor on Neutravidin plates, tag-less TC serially diluted in 20 mM Tris pH 7.5, 0.5 mM CaCl2, 150 mM NaCl, 0.05% Tween-20, 1 h RT; TC detected with antibody A-5; single-site fit, n=5. Particulars: both partners purified. In general terms: In an ELISA, binding on a coated surface is turned into a signal by an enzyme label.

Here are results for 2 molecules from PMC4947154, “Structural basis of transcobalamin recognition by human CD320 receptor” (Nature Communications, 2016).

Consider B1, for which the “stoichiometry N” value in test [1] is 1 TC:CD320.

B2: MBP-tagged, biotinylated CD320 LDLR-A2 domain (residues 125-199, Avi Tag) (domain or fragment)
chain: not shown
modifications: biotin on the Avi Tag (BirA)
notes: CD320, human, LDLR type A domain 2 construct, residues 125-199; source: Sf21 insect cells (Multibac baculovirus), secreted, purified (Ni-NTA, no MBP cleavage), biotinylated with BirA; not shown: His9, N-terminal, kept; MBP, N-terminal, kept
By Kd is commonly meant a measure of binding affinity in units of concentration. A low value points to higher affinity. B2 gave a dissociation constant (Kd) in test [2] of approximately 10 nM.
